Results on 1 substance are retold here after patent US20120039906A1.

The target of the assay is PD-1 Ig fusion protein (extracellular region of human PD-1, aa 1 to 152, fused to the Fc fragment of human IgG1) (human) (UniProt Q15116). The assay can be described thus: SPR (Biacore), 1:1 Langmuir model, PD-L2 Ig over immobilised PD-1 Ig; bivalent analyte, filing calls it most likely an avidity value. For orientation: In SPR one partner is held on a chip, and binding of the other changes the refractive index at the surface.
Sequence of PD-1 Ig fusion protein (extracellular region of human PD-1, aa 1 to 152, fused to the Fc fragment of human IgG1) (human) (Q15116 other isoform, or with tags, fused parts or gaps limits assumed, form in doubt): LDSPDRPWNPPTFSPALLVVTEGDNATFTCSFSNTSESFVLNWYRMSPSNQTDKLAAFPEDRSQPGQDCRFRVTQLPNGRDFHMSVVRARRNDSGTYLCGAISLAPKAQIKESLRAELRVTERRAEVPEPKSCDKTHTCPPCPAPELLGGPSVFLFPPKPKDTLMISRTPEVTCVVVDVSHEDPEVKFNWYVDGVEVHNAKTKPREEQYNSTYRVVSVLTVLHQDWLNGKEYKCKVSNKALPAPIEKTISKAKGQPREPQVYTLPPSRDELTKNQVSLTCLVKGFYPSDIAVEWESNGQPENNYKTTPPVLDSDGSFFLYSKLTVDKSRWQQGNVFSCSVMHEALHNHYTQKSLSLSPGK

Turning to “PD-L2 Ig fusion protein (extracellular portion of human PD-L2 fused to the Fc fragment of human IgG1) (from UniProt Q9BQ51 20-220) (Fc fusion)”, the Kd amounted to 9.97 nM.
